“And” between values parts separate entries of the source, which are not always exact repeats. Equal values may be shown once.
Test system: CT26 tumors
Experiment: CT26 mouse colon carcinoma syngeneic model
Type: in vivo
Conditions: CT26; groups of 10 mice; CR = tumor volume ≤25 mm^3 over at least 3 successive measurements
Protocol: BALB/c, C57BL/6, CB6F1 (C57BL/6 bred with BALB/c) and SCID mice were obtained from Charles River (Wilmington, Mass.).
EMT6, mouse mammary carcinoma and CT26, mouse colon carcinoma, cell lines were obtained from ATCC (Manassas, Va.).
Compound (I),venetoclax, was formulated in 10% ethanol+30% PEG 400+60% Phosal® 50PG. Venetoclax was administered orally once a day for 14 days at 50 mg/kg/day.
1×10^5 CT26, EMT6 or MC38 cells were subcutaneously injected with Matrigel into the flanks of BALB/c, CB6F1 or C57BL/6 mice, respectively. Seven days later, mice were randomized to treatment groups of vehicle, venetoclax, anti-PD-1/PD-L1 or the combination of venetoclax and anti-PD-1/PD-L1. Tumor volume was determined via measurements of the length (L) and width (W) of the tumor with electronic calipers and the volume was calculated according to the following equation: V=L×W2/2 using Study Director Version 2.1.11 (Studylog Systems Inc., South San Francisco). Complete response (CR) was defined as reduction in tumor volume to ≤25 mm^3 over at least 3 successive measurements.

B1: anti mu PD1 (17D2 murinized, VH2xVL1x)[mu IgG2a/k] DANA: Mouse anti-PD-1 antibody, heavy chain SEQ ID NO: 3, light chain SEQ ID NO: 4 (antibody)
heavy: QVTLKESGPGILQSSQTLSLTCTFSGFSLSTYGMGVGWIRQPSGKGLEWLTNIWWDDDKYYNSSLKNRLTVSKDTANNQVFLKFTSVDIADTATYYCGRMEWGGSFDYWGQGIMVTVSSAKTTAPSVYPLAPVCGDTTGSSVTLGCLVKGYFPEPVTLTWNSGSLSSGVHTFPAVLQSDLYTLSSSVTVTSSTWPSQSITCNVAHPASSTKVDKKIEPRGPTIKPCPPCKCPAPNLLGGPSVFIFPPKIKDVLMISLSPIVTCVVVAVSEDDPDVQISWFVNNVEVHTAQTQTHREDYASTLRVVSALPIQHQDWMSGKEFKCKVNNKDLPAPIERTISKPKGSVRAPQVYVLPPPEEEMTKKQVTLTCMVTDFMPEDIYVEWTNNGKTELNYKNTEPVLDSDGSYFMYSKLRVEKKNWVERNSYSCSVVHEGLHNHHTTKSFSRTPGK
light: DIVMTQTPVSLSVSLGGQVSISCRSSQSLEHRNGITFLSWYLQKPGQSPQLLIYKVSNRFSGISDRFSGRGSGTDFVLQINRVEPDDLGVYYCGQGTHYPLTFGSGTKLEIKRADAAPTVSIFPPSSEQLTSGGASVVCFLNNFYPKDINVKWKIDGSERQNGVLNSWTDQDSKDSTYSMSSTLTLTKDEYERHNSYTCEATHKTSTSPIVKSFNRNEC
  complete responses (CR): did not lead to any complete responses and 0/10
